PMC4049620

Columns and labels:
[1] = molecular target: T9 SipA_(36-173), N-terminally His-tagged (entire extracellular region of SipA from S. pyogenes serotype T9 strain 90/306S) (Streptococcus pyogenes serotype T9 strain 90/306S); test: crystal structure; Space group P6_(4)22, two molecules in the asymmetric unit; octamer built by crystal symmetry; crystals grown at 18°C from 1 M NaKPO4 pH 7.0, 8% MPD
[2] = molecular target: T9 SipA_(36-173), N-terminally His-tagged (entire extracellular region of SipA from S. pyogenes serotype T9 strain 90/306S) (Streptococcus pyogenes serotype T9 strain 90/306S); test: SAXS; Australian Synchrotron SAXS/WAXS beamline; dilution series 1-20 mg/ml; experimental curve compared by CRYSOL with the curve calculated from the crystal octamer (chi^2 = 1.29)
[3] = molecular target: T9 SipA_(36-173), N-terminally His-tagged (entire extracellular region of SipA from S. pyogenes serotype T9 strain 90/306S) (Streptococcus pyogenes serotype T9 strain 90/306S); test: SEC + other: dynamic light scattering; Superdex S200 10/300 in 10 mM Tris.Cl pH 8.0, 100 mM NaCl; single peak, species of about 150 kDa after glycine treatment; data not shown

Measured: stoichiometry N

T9 SipA_(36-173), N-terminally His-tagged (entire extracellular region of SipA from S. pyogenes serotype T9 strain 90/306S) (domain or fragment)
8: all assays above
